From article PMC2847587 come the findings set out here.

Holding throughout (assay): immunodepletion
In assay [1] the target is FAAP24 (human (endogenous in HeLa)) (UniProt Q9BTP7).
Assay [2] has as its target FANCA (human (endogenous in HeLa)) (UniProt O15360).
In assay [3] the target is MHF1 (FANCM-associated Histone Fold protein 1) (human (endogenous in HeLa)) (UniProt Q8N2Z9).
The target in assay [4] is MHF2 (FANCM-associated Histone Fold protein 2) (human (endogenous in HeLa)) (UniProt A8MT69). The note with it: remark: other sources report otherwise.
Chain of MHF2 (FANCM-associated Histone Fold protein 2) (human (endogenous in HeLa)) (A8MT69 whole entry): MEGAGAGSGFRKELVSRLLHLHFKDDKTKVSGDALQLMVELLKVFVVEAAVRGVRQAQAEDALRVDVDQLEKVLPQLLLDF

Chain of FANCA (human (endogenous in HeLa)) (O15360 whole entry): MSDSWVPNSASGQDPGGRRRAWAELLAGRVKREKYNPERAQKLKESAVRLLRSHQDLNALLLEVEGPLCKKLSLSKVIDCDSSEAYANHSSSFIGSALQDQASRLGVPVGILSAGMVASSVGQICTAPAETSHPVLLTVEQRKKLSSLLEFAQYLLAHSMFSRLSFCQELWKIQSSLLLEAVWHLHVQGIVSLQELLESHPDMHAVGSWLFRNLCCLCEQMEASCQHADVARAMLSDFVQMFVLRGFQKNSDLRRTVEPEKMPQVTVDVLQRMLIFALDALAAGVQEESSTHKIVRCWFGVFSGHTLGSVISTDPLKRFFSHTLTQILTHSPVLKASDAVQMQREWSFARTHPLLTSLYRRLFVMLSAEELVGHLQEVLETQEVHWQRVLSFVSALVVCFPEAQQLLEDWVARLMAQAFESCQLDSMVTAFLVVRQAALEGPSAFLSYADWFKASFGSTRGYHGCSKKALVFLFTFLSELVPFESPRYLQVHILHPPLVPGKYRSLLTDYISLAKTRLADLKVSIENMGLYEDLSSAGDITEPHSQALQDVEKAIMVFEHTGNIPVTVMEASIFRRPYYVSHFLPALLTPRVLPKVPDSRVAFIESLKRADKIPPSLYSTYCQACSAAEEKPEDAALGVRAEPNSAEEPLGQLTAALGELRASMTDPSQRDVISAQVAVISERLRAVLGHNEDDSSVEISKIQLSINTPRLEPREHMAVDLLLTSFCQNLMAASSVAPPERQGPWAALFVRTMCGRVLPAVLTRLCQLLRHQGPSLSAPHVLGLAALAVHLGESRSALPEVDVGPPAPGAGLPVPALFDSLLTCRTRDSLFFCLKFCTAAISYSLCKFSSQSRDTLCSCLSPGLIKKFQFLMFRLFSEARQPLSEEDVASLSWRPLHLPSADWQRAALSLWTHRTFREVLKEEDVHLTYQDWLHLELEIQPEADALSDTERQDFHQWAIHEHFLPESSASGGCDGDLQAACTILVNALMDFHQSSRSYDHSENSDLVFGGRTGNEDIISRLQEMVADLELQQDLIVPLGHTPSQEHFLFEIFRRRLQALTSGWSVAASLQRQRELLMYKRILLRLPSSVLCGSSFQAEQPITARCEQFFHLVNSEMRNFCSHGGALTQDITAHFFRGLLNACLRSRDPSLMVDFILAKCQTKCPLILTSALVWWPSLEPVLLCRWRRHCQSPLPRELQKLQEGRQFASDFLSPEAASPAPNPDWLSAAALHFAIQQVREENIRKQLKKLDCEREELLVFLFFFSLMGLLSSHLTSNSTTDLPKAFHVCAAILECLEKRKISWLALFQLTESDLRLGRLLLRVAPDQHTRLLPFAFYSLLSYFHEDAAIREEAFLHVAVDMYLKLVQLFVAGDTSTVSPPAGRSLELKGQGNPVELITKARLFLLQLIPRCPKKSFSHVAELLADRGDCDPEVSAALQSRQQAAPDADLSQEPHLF
Chain of FAAP24 (human (endogenous in HeLa)) (Q9BTP7 whole entry): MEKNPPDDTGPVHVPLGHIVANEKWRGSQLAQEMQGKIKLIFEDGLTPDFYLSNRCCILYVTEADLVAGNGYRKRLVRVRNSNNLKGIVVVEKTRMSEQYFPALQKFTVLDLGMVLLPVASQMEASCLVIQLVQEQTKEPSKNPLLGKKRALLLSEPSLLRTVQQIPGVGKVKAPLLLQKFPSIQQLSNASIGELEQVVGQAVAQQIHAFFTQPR
Chain of MHF1 (FANCM-associated Histone Fold protein 1) (human (endogenous in HeLa)) (Q8N2Z9 whole entry): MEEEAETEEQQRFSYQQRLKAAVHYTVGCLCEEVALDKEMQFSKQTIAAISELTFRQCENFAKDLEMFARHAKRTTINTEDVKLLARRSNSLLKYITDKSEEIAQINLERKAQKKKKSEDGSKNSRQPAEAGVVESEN

For the substance FANCM, Q8IYD8 1-2048, the percent co-depleted in assay [1] was 70%; in assay [2], below 30%; in assay [3] it was 85%; in assay [4] it was 85%.
